# In patent US20210309732A1 (ELIXIRON IMMUNOTHERAPEUTICS HONG KONG, published 2021):
# T1: mouse GM-CSF (mouse, UniProt P01587 18-141)
# T1 sequence (looked up): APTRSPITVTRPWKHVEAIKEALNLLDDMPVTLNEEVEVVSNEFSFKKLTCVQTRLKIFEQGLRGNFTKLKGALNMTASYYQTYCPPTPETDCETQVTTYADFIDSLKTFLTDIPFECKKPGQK
# B1: antibody 1D2 (antibody, V domains shown)
# VH: QVQLVQSGAEVKKPGASVKVSCEASGYTFTDKYLHWVRQAPGQGLEWMAWINPKSGGTFYAQNFKGRVTVTRDTSINTAYLELTSLRLDDTSTYYCARGRDYYDQGAADLWGQGTMVTVSS
# VL: DIQLTQSPSSLSASVGDRVTITCRASQGINSVLAWYQQKPGKAPKLLLYAASKLESGVPSRFSGSGSGTDYTLTISSLQPEDFGTYYCQQYYSPVRTFGQGTKVEIKR
# notes: also called 1D2-WT; WT
# Legend:
# recombinant human GM-CSF [1] = target: T2, recombinant human GM-CSF (human, UniProt P04141 18-144); test: ELISA on coated rhGM-CSF, UBA relative to 1D2
# T2 construct: also called rhGM-CSF; CSF2
# Method in brief: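 Antibody clones carrying SDR point mutants in VH or VL, each paired with the wild-type chain, were expressed in HEK293 cells. Culture media diluted 1:12000 were bound to plates coated with rhGM-CSF at 1 μg/mL for 1 h at room temperature. Detection used HRP anti-human antibody and Amplex Red fluorescence (Ex530/Em590), with UBA = fluorescence signal/dilution factor.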
# rhesus GM-CSF [2] = target: T3, rhesus GM-CSF (rhesus, UniProt Q9GL44 18-144); test: ELISA, rhesus GM-CSF coated on the plate, anti-human kappa light chain-HRP, OD 450 nm
# Procedure: (§1) Human and mouse GM-CSF have about 56% homology and are species specific. Rhesus and GM-CSF has 96.5% homologous to human GM-CSF (Hutchinson et al, J Med Virol 2001, 65:561-565, Genbank accession number AY007376). […] ELISA was performed as followed. Briefly, GM-CSF proteins were coated on the ELISA absorbing plates, then blocked by 1% BSA in PBS. […] After incubation, the plates were washed three times with TBST and incubated with anti-human kappa light chain conjugated HRP secondary antibodies. Plates were washed three times, TMB peroxidase substrate was added and reactions were stopped by adding 1 N sulfuric acid.
# recombinant human GM-CSF [3] = target: T2, recombinant human GM-CSF; test: cell-based or functional assay
# recombinant human GM-CSF [4] = target: T2, recombinant human GM-CSF; test: SPR Biacore 3000, antibody captured by goat anti-human IgG, rhGM-CSF injected
# Procedure: The kinetic binding analysis of anti-GM-CSF antibodies to recombinant human GM-CSF (rhGM-CSF) was determined by Surface plasmon resonance (SPR) using the Biacore 3000 instrument (GE Healthcare). Goat anti-human IgG (5 μg/mL) (SouthernBiotech) was stabilized in […] acetate buffer, pH 4.5, and immobilized on an EDC/NHS pre-activated carboxymethylated dextran 5 (CMS) sensor chip (GE Healthcare) through amine coupling kit (GE Healthcare). HBS-EP buffer (HBS; 10 […], 0.005% surfactant Tween-20, pH 7.4) (GE Healthcare) was used as running buffer. […] CMS sensor chip coated only with goat anti-human IgG was used as reference chip. rhGM-CSF (Biolegend) was injected over the mAb-coated CMS sensor chip and reference chip at different concentrations. The flow rate was 30 μl/min. […] Injection time and dissociation time were 180 and 600 seconds. Data were fitted to a 1:1 model using the Biacore 3000 evaluation software.
# recombinant human GM-CSF [5] = target: T2, recombinant human GM-CSF; test: Biacore
# recombinant human GM-CSF [6] = target: T2, recombinant human GM-CSF; test: ELISA, human GM-CSF coated on the plate, anti-human kappa light chain-HRP, OD 450 nm
# Procedure: as §1
# recombinant human GM-CSF [7] = target: T2, recombinant human GM-CSF; test: Gator (pro), Coating Ag
# recombinant human GM-CSF [8] = target: T2, recombinant human GM-CSF; test: Biacore; remark: listed apart in the source
# recombinant human GM-CSF [9] = target: T2, recombinant human GM-CSF; test: cell-based or functional assay; remark: listed apart in the source
# recombinant human GM-CSF [10] = target: T2, recombinant human GM-CSF; test: Gator, Coating Ab
# recombinant human GM-CSF [11] = target: T2, recombinant human GM-CSF; test: Gator, Coating Ag
# recombinant human GM-CSF [12] = target: T2, recombinant human GM-CSF; test: Biacore; remark: listed apart in the source
# rhesus GM-CSF [13] = target: T3, rhesus GM-CSF; test: ELISA, GM-CSF coated on the plate, anti-human kappa light chain-HRP, OD 450 nm
# Procedure: as §1
# mouse GM-CSF = target: T1, mouse GM-CSF; test: as above
# Procedure: as §1
# recombinant human GM-CSF [14] = target: T2, recombinant human GM-CSF; test: as above
# Procedure: as §1
# T2 sequence (P04141 18-144 limits assumed): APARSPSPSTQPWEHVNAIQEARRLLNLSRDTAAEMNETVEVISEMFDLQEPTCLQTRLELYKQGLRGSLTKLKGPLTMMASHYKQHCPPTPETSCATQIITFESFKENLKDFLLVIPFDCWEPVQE
# T3 sequence (Q9GL44 entry or part of it limits assumed): as the sequence (P04141 18-144 limits assumed) above, with S9G, E38K, I43V, T53S, R67Q, E104Q counted along it
binder,measurement,setting,value
B1,binding affinity % of 1D2,recombinant human GM-CSF [1],100%
same,EC50 (read off the curve),rhesus GM-CSF [2],~0.5 nM
same,"IC50 (M), inhibition of GM-CSF induced TF-1 cell proliferation (FIG. 5A)",recombinant human GM-CSF [3],1.71e-10 M
same,"IC50 (M), inhibition of GM-CSF induced TF-1 cell proliferation (FIG. 5B)",recombinant human GM-CSF [3],2.28e-10 M
same,Kd,recombinant human GM-CSF [4],0.0643 nM
same,koff,recombinant human GM-CSF [4],7.48e-05 s⁻¹
same,kon,recombinant human GM-CSF [4],~1.16e+06 M⁻¹ s⁻¹
same,Kd,recombinant human GM-CSF [5],0.099 nM
same,koff,recombinant human GM-CSF [5],0.000173 s⁻¹
same,kon,recombinant human GM-CSF [5],1.75e+06 M⁻¹ s⁻¹
same,EC50 (read off the curve),recombinant human GM-CSF [6],~0.4 nM
same,Kd,recombinant human GM-CSF [7],0.00157 nM
same,Kd,recombinant human GM-CSF [8],0.162 nM
same,"IC50, inhibition of GM-CSF induced TF-1 cell proliferation",recombinant human GM-CSF [9],0.0631 nM
same,"IC50, inhibition of rhGM-CSF induced CCL17 secretion from PBMCs",recombinant human GM-CSF [9],0.0714 nM
same,"IC50, inhibition of rhGM-CSF induced CCL17 secretion in human PBMCs",recombinant human GM-CSF [9],0.159 nM
same,"IC50, inhibition of rhGM-CSF induced IL-8 secretion in U937 cells",recombinant human GM-CSF [9],0.0594 nM
same,Kd,recombinant human GM-CSF [10],0.177 nM
same,Kd,recombinant human GM-CSF [11],0.0176 nM
same,Ka,recombinant human GM-CSF [12],1.01e+10 M⁻¹
same,Kd,recombinant human GM-CSF [12],0.099 nM
same,koff,recombinant human GM-CSF [12],0.000173 s⁻¹
same,kon,recombinant human GM-CSF [12],1.75e+06 M⁻¹ s⁻¹
same,EC50 (read off the curve),rhesus GM-CSF [13],~0.06 nM
same,binding result,mouse GM-CSF,no binding (tested: about 4e-8 M)
same,EC50 (read off the curve),recombinant human GM-CSF [14],~0.08 nM
